Data reported in doi:10.1101/2024.01.16.575974, “Structural insights into peptidoglycan hydrolysis by the FtsEX system in Escherichia coli during cell division” (bioRxiv, 2024).
Positions count from the first letter of the chain named. In names and notes the source's numbering stands.

T1: Escherichia coli FtsEX complex (wild type) in peptidiscs (Escherichia coli (str. K-12, MG1655), UniProt P0A9R7 1-222; P0AC30 1-352)
T1 sequence (looked up) 1: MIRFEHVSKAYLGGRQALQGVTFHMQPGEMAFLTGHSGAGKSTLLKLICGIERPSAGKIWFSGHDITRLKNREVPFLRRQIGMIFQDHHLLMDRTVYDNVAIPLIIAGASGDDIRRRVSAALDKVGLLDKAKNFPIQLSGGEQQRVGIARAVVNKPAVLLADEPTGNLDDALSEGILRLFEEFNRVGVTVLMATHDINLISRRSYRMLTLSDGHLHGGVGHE
T1 sequence (looked up) 2: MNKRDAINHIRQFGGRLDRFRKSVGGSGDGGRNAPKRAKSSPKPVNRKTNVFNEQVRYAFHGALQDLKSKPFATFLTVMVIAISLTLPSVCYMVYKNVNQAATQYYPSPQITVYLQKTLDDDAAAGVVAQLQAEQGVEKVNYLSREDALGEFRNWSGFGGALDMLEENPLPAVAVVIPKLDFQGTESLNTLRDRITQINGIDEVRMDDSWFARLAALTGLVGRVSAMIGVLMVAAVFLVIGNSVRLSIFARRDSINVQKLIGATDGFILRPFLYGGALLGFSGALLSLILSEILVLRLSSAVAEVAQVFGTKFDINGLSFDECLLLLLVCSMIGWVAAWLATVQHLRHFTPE

B1: Escherichia coli FtsE E163Q mutant, His-tagged (natural protein, Escherichia coli (str. K-12, MG1655), UniProt P0A9R7 1-222, looked up)
chain: T1 sequence (looked up) 1 with E163Q
notes: FtsE, Escherichia coli str; K-12 MG1655, full length, with E163Q (cannot hydrolyse ATP); Made with the QuikChange kit on pTD68 [PT7::his6-FtsEX]; also called FtsE mutant (E163Q); ATPase mutant; source: E. coli BL21(DE3) pLysS, co-expressed with FtsX, purified (DDM, TALON, peptidiscs, SEC) with ATP; not shown: His6, N-terminal, kept
B2: Escherichia coli EnvC (EcoEnvCΔ34) (natural protein, UniProt P37690 35-419, looked up)
chain: DERDQLKSIQADIAAKERAVRQKQQQRASLLAQLKKQEEAISEATRKLRETQNTLNQLNKQIDEMNASIAKLEQQKAAQERSLAAQLDAAFRQGEHTGIQLILSGEESQRGQRLQAYFGYLNQARQETIAQLKQTREEVAMQRAELEEKQSEQQTLLYEQRAQQAKLTQALNERKKTLAGLESSIQQGQQQLSELRANESRLRNSIARAEAAAKARAEREAREAQAVRDRQKEATRKGTTYKPTESEKSLMSRTGGLGAPRGQAFWPVRGPTLHRYGEQLQGELRWKGMVIGASEGTEVKAIADGRVILADWLQGYGLVVVVEHGKGDMSLYGYNQSALVSVGSQVRAGQPIALVGSSGGQGRPSLYFEIRRQGQAVNPQPWLGR
B3: Escherichia coli FtsX, full length (natural protein, Escherichia coli (str. K-12, MG1655), UniProt P0AC30 1-352, looked up)
chain: T1 sequence (looked up) 2
notes: FtsX, Escherichia coli str; K-12 MG1655, full length; residues 1-52 not resolved in the maps; Two copies stand in the FtsEX complex; also called EcoFtsX; TMD

Key:
[1] = target: the molecule itself; assay: cryo-EM structure; FtsE^E163QX in peptidiscs incubated with EnvC, 2 mM ATP-Mg2+, 8 min at 37°C before freezing
[2] = target: T1, Escherichia coli FtsEX complex (wild …); assay: cell-based or functional assay
[3] = target: the molecule itself; assay: cryo-EM structure; WT EcoFtsEX in peptidiscs, 3 mM ATPγS, 2 mM Mg2+, incubated 8 min at 37°C before freezing
[4] = target: B2; assay: cryo-EM structure; FtsE^E163QX in peptidiscs incubated with EnvC, 2 mM ATP-Mg2+, 8 min at 37°C before freezing; details: both partners purified

B1
binding result [1]: binds

B2
fold increase of Vmax of ATP hydrolysis with EnvC over FtsEX alone [2]: ~2.2 fold

B3
binding result [3]: binds
binding result [4]: binds
